“Also recorded” adds a separate entry of the source.
How the values were obtained:
Hep3B cells [1] = test: Co-transfection of SQT-Bim-BH3 mRNA with Bcl-2-like Trap mRNAs, % phase confluence; assay type: cell-based
From the text: C32, Bcl-xL del.C24, Mcl-1 del.N/C(2010), and Bcl-xL (D61A) del.C24.

HeLa cells [2] = test: PARP-1 cleavage by SDS-PAGE and Western blotting after transfection of mRNAs encoding SQT-BH3 constructs; assay type: cell-based; conditions: 4 hours after transfection
From the text: The cleavage of PARP-1 was detected by the appearance of a faster-migrating band and concomitant loss of the full-length band by SDS-PAGE and Western blotting. Western blotting with anti-actin antibodies served as a loading control.

BCL-XL = target: T1, BCL-XL (Homo sapiens, UniProt Q07817); test: Co-immunoprecipitation after mRNA transfection; assay type: binding; conditions: within two hours after mRNA transfection
T1 construct: endogenous in cells; host or cells: cells transfected with SQT-BH3 mRNA (HeLa by context)

BCL-2 = target: T2, BCL-2 (Homo sapiens, UniProt P10415); test: Co-immunoprecipitation after mRNA transfection; assay type: binding; conditions: within two hours after mRNA transfection
T2 construct: endogenous in cells; host or cells: cells transfected with SQT-BH3 mRNA (HeLa by context)

HeLa cells [3] = test: Long-term live cell imaging of GFP-positive cells after mRNA transfection; assay type: cell-based
Hep3B cells [4] = test: Cell death by YOYO-3 with MC3-formulated LNPs; assay type: cell-based; conditions: relatively high concentration
Protocol: The efficacy of mRNAs encoding SQT-BH3 constructs in inducing cell death was tested both in hepatocellular carcinoma cell lines as well as in primary hepatocytes using lipid nanoparticle (LNP)-formulated constructs. Hep3B cells were treated with varying doses (0.78 ng to 50 ng) of MC3-formulated LNPs in the presence of YOYO-3 (Life Technologies), a DNA dye that is taken up preferentially by dead cells that is used to measure the extent of cell death. MC3 lipid nanoparticles included MC3 50%, DSPC 10%, Cholesterol 38.5%, PEG-DMG 1.5%, N:P ˜5.5.

primary hepatocytes [5] = test: Apoptosis induction by MC3 LNP-formulated mRNAs in primary hepatocytes cultured in vitro; assay type: cell-based; conditions: LNPs
Hep3B cells [6] = test: Sorafenib combination, YOYO-3 apoptosis on IncuCyte ZOOM; assay type: cell-based
Protocol: To determine the effect of SQT-BH3 constructs in combination with the protein tyrosine kinase inhibitor Sorafenib on liver cells, 20,000 Hep3B cells/well in a 96 well plate were treated with increasing amounts of sorafenib tosylate (Selleck Chemicals) and transfected with LNPs containing SQT-PUMA-BH3 (68 pM) or SQT-Bad-BH3 (550pM).

[7] = system: primary mouse hepatocytes; test: Sorafenib combination in primary mouse hepatocytes; assay type: cell-based; conditions: SQT-PUMA-BH3 205 pM or 1100 pM, SQT-Bad-BH3 549 pM or 1100 pM, sorafenib 0-10 uM
Protocol: Similar combination experiments were performed with primary mouse hepatocytes, treated with SQT-PUMA-BH3 (205 pM or 1100 pM) or SQT-Bad-BH3 (549 pM or 1100 pM) in combination with sorafenib (0-10 μM). […] Thus, normal primary liver cells are spared by the combination treatment, indicating the combination treatment can selectively kill liver cancer cells over normal liver cells.

Hep3B cells [8] = test: SQT-BH3 in combination with siMCL1 or sorafenib, YOYO-3; assay type: cell-based; conditions: 10 uM sorafenib tosylate, 24 hours after treatment
primary hepatocytes [9] = conditions: 10uM sorafenib tosylate, 24 hours after treatment
Protocol: Controls were an empty SQT construct (“SQT-dummy”), a non-targeting siRNA and PBS. For treatment of Hep3B cells, 20,000 Hep3B cells/well per plated in 96-well plates. At Day 1, some wells were transfected with siMCL1 (Dharmacon, ON-TARGETplus Human MCL1 (4170) siRNA-SMARTpool, # L-004501-00-0005) or non-targeting siRNA (ON-TARGETplus Non-targeting Control Pool, # D-001810-10-05). […] 24 hours after treatment, YOYO®-3 iodide (Life Technologies) viability dye was added to each well and cell death was measured on an IncuCyte ZOOM® using YOYO-3 fluorescence as a readout (=“Apoptosis”). For treatment of primary hepatocytes, 18,000 mouse hepatocytes (Gibco) were seeded in each well of a 96-well plate. At Day 1, some wells were transfected with siMCL1 (Dharmacon, SMARTpool: ON-TARGETplus Mc11 siRNA, # L-062229-00-0005) or non-targeting siRNA (ON-TARGETplus Non-targeting Control Pool, # D-001810-10-05). […] 24 hours after treatment, Caspase 3/7 reagent (EssenBio) apoptosis dye was added to each well and cell death was measured on an IncuCyte ZOOM® using the caspase 3/7 reagent fluorescence as a readout (=“Apoptosis”).

MCL-1 = target: T3, MCL-1 (Homo sapiens, UniProt Q07820); test: Co-immunoprecipitation in lysates of transfected HeLa cells; assay type: binding; conditions: lysates of HeLa cells transfected with mRNAs
T3 construct: performed in lysates of HeLa cells transfected with mRNAs encoding SQT-BH3 constructs; endogenous in cells; host or cells: HeLa
T3 sequence (Q07820 whole entry): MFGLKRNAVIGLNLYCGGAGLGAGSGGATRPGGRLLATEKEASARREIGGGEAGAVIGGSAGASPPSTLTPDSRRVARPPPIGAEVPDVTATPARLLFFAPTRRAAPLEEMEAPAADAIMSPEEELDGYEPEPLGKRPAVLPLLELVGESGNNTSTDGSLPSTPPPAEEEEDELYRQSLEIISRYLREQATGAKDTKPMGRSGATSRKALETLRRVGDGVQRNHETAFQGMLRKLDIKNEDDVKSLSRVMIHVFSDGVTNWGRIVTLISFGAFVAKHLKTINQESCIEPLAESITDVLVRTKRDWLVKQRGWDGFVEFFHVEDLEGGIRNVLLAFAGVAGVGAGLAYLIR

T1 sequence (Q07817 whole entry): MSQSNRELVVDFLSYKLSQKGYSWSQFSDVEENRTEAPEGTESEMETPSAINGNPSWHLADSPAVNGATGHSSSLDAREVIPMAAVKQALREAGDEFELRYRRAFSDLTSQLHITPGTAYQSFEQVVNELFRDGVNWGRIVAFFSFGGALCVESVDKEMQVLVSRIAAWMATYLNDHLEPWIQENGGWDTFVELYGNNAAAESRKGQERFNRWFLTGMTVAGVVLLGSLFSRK
T2 sequence (P10415 whole entry): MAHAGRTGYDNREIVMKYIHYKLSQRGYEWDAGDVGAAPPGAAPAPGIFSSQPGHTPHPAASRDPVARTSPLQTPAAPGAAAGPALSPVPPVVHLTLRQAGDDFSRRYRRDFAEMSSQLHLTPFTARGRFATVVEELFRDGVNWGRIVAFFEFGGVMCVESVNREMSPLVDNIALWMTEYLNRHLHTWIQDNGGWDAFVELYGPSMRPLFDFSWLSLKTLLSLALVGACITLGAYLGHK

B1: Bcl-w (C29S/A128E) BH3 Trap.n9V5: Bcl-2-like trap mRNA, SEQ ID NO: 81, V5 tag (nucleic acid)
chain: ATGATTCCCAATCCGCTCCTCGGGCTTGACGCTACACCAGCCAGTGCACCAGACACGAGGGCGCTGGTTGCCGATTTCGTGGGATACAAGCTCAGGCAAAAAGGGTACGTAAGCGGTGCCGGGCCCGGGGAGGGACCGGCTGCCGATCCACTCCACCAGGCTATGAGGGCAGCTGGGGACGAATTCGAAACACGCTTTCGGCGGACTTTCTCCGACCTTGCCGCACAGCTACACGTCACTCCCGGGAGCGCTCAGCAGCGCTTCACGCAGGTCTCAGACGAATTGTTCCAAGGCGGCCCTAATTGGGGAAGATTGGTGGCCTTCTTCGTGTTTGGGGCAGCACTGTGCGCTGAGTCCGTGAACAAAGAAATGGAACCCCTCGTTGGCCAAGTCCAAGAATGGATGGTGGAATATCTGGAAACACAGTTAGCGGATTGGATTCACTCATCTGGGGGCTGGGCTGAGTTTACAGCACTGTACGGGGACGGTGCCCTAGAGGAGGCCCGAAGACTGAGGGAAGGCAACTGGGCCAGCGTTCGCACGGTGTTGACCGGCGCGGTTGCTTTGGGCGCTTTGGTTACCGTCGGCGCATTCTTCGCCAGTAAA
modifications: V5 tag; Synthetic Bcl-w (C29S/A128E)BH3 mRNA sequence with V5 epitope tag
- fate of SQT-BimBH3-transfected cells co-transfected with Trap construct (Hep3B cells [1]): remained alive
- inhibition of SQT-BH3-induced cell death (% phase confluence) (Hep3B cells [1]; co-transfected with SQT-Bim-BH3 mRNA, ratio Trap construct:SQT-BH3 construct 1:2, 24 hour period): most potent inhibitor of SQT-BH3-induced cell death; also recorded: to a substantially greater degree than Bcl-xL (D61A) del.C24 BH3 Trap.cFLAG

B2: SQT-Bad-BH3: mRNA (SEQ ID NO: 51, FLAG) encoding SQT scaffold with Bad BH3 domain in N-terminus (nucleic acid)
chain: ATGATCCCAAGAAACCTGTGGGCTGCACAACGCTACGGAAGAGAACTGCGCCGGATGAGCGACGAATTTGTGGACTCGTTCAAGAAGGGGGGACTCTCAGAAGCGAAGCCTGCCACCCCCGAAATCCAGGAAATCGTCGACAAGGTCAAGCCGCAGCTTGAGGAAAAGACCAACGAGACTTACGGAAAACTGGAGGCCGTGCAGTATAAGACCCAAGTGTTGGCCTCCACCAACTACTACATTAAGGTCCGCGCCGGCGATAACAAGTACATGCACCTGAAGGTGTTCAATGGTCCTCCGGGACAGAACGCGGACAGGGTGCTGACTGGCTACCAAGTGGACAAGAACAAGGACGACGAGCTGACGGGCTTCGACTACAAGGATGATGATGACAAA
modifications: FLAG tag; Synthetic SQT-BAD-BH3 mRNA sequence with FLAG epitope tag
- PARP-1 cleavage, extent (HeLa cells [2]): also induced PARP-1 cleavage, although to a lesser extent than SQT-PUMA-BH3 or SQT-Bim-BH3
- interaction with BCL-XL by co-immunoprecipitation (BCL-XL): also able to co-immunoprecipitate BCL-XL and BCL-2, although to a lesser extent than SQT-PUMA-BH3 and SQT-Bim-BH3
- interaction with BCL-2 by co-immunoprecipitation (BCL-2): also able to co-immunoprecipitate BCL-XL and BCL-2, although to a lesser extent than SQT-PUMA-BH3 and SQT-Bim-BH3
- cell-killing activity (HeLa cells [3]): did not show cell-killing activity
- apoptosis and cell death (YOYO-3) (Hep3B cells [4]): behaved similar to the empty MC3 LNP control and mRNAs encoding SQT
- PARP-1 cleavage (primary hepatocytes [5]): did not
- nature of combination effect with sorafenib (Hep3B cells [6]; SQT-PUMA-BH3 68 pM or SQT-Bad-BH3 550pM): synergistic effect
- apoptosis (YOYO-3), combination with sorafenib vs sorafenib alone (Hep3B cells [6]; SQT-PUMA-BH3 68 pM or SQT-Bad-BH3 550pM in LNPs, increasing sorafenib tosylate): increased apoptosis of the liver cells as compared to treatment with sorafenib alone
- apoptosis in combination with sorafenib [7]: neither SQT-BH3 construct, in combination with sorafenib, caused apoptosis
- apoptosis (YOYO-3) in combination with either siMCL1 or sorafenib (Hep3B cells [8]): led to a marked increase in apoptosis as compared to treatment with the SQT-BH3 construct in combination with non-targeting siRNA or PBS; also recorded: synergistic pro-apoptotic effect
- apoptosis (caspase 3/7) in combination with siMCL1, sorafenib or controls (primary hepatocytes [9]): did not lead to increased apoptosis as compared to treatment with the control SQT-dummy construct

B3: SQT-Noxa-BH3: mRNA (SEQ ID NO: 52, FLAG) encoding SQT scaffold with Noxa BH3 domain in N-terminus (nucleic acid)
chain: ATGATCCCAAGACCCGCAGAGCTCGAAGTGGAATGCGCTACCCAACTTAGACGGTTCGGAGACAAGCTGAACTTTCGGCAGAAGCTCCTGGGACTCTCAGAAGCGAAGCCTGCCACCCCCGAAATCCAGGAAATCGTCGACAAGGTCAAGCCGCAGCTTGAGGAAAAGACCAACGAGACTTACGGAAAACTGGAGGCCGTGCAGTATAAGACCCAAGTGTTGGCCTCCACCAACTACTACATTAAGGTCCGCGCCGGCGATAACAAGTACATGCACCTGAAGGTGTTCAATGGTCCTCCGGGACAGAACGCGGACAGGGTGCTGACTGGCTACCAAGTGGACAAGAACAAGGACGACGAGCTGACGGGCTTCGACTACAAGGATGATGATGACAAA
modifications: FLAG tag; Synthetic SQT-NoxA-BH3 mRNA sequence with FLAG epitope tag
- PARP-1 cleavage, extent (HeLa cells [2]): also induced PARP-1 cleavage, although to a lesser extent than SQT-PUMA-BH3 or SQT-Bim-BH3
- co-immunoprecipitation of MCL-1 (MCL-1): able to co-immunoprecipitate
- cell-killing activity (HeLa cells [3]): did not show cell-killing activity
- apoptosis and cell death (YOYO-3) (Hep3B cells [4]): behaved similar to the empty MC3 LNP control and mRNAs encoding SQT
- PARP-1 cleavage (primary hepatocytes [5]): did not

B4: Bcl-xL del.C24 BH3 Trap.cFLAG: Bcl-2-like trap mRNA, SEQ ID NO: 83, FLAG tag (nucleic acid)
chain: ATGTCCCAGAGCAACAGGGAACTCGTAGTCGATTTCTTGTCCTACAAGCTCAGTCAGAAGGGCTACTCTTGGTCCCAATTTTCCGACGTGGAAGAAAATCGGACAGAAGCCCCTGAGGGAACCGAGAGTGAGATGGAGACCCCGTCTGCAATCAACGGGAACCCTTCTTGGCACTTGGCCGACAGTCCCGCTGTGAATGGCGCCACAGGTCACAGTTCATCACTCGACGCTAGAGAAGTTATACCCATGGCAGCAGTCAAGCAAGCTCTGCGGGAGGCCGGCGACGAGTTCGAACTTCGGTACCGCCGAGCTTTTTCTGACCTGACTAGTCAGCTGCATATTACTCCGGGCACTGCGTACCAGTCGTTCGAACAGGTGGTTAATGAACTATTTCGAGACGGCGTGAATTGGGGCAGAATTGTAGCCTTTTTCTCCTTTGGAGGTGCACTGTGTGTCGAGAGCGTCGATAAGGAAATGCAGGTGTTGGTGAGCCGTATCGCGGCCTGGATGGCCACGTATCTGAACGACCATTTGGAACCATGGATCCAAGAAAACGGGGGTTGGGATACTTTCGTGGAGTTATATGGCAACAATGCTGCAGCGGAAAGTCGCAAGGGCCAGGAACGAGACTATAAAGATGACGACGATAAA
modifications: FLAG tag; Synthetic Bcl-xL del.C24 mRNA sequence with FLAG epitope tag
- fate of SQT-BimBH3-transfected cells co-transfected with Trap construct (Hep3B cells [1]): exhibited substantial apoptosis and cell death

Reference: US20190119357A1, “MESSENGER RIBONUCLEIC ACIDS FOR THE PRODUCTION OF INTRACELLULAR BINDING POLYPEPTIDES AND METHODS OF USE THEREOF” (ModernaTX, Inc., priority 2015, published 2019)
